{"source": "patent US20210072252A1", "about": "(WASHINGTON UNIVERSITY, published 2021)", "key": {"[1]": {"target": "peptide with N-terminal arginine", "experiment": "biolayer interferometry (Blitz), peptide-coated sensor, NAAB in 1x PBS, 1:1 fit, kd/ka"}, "[2]": {"target": "peptide with N-terminal asparagine", "experiment": "biolayer interferometry (Blitz), peptide-coated sensor, NAAB in 1x PBS, 1:1 fit, kd/ka"}, "[3]": {"target": "peptide with N-terminal serine", "experiment": "biolayer interferometry (Blitz), peptide-coated sensor, NAAB in 1x PBS, 1:1 fit, kd/ka"}, "[4]": {"target": "peptide with N-terminal isoleucine", "experiment": "biolayer interferometry (Blitz), peptide-coated sensor, NAAB in 1x PBS, 1:1 fit, kd/ka"}, "[5]": {"target": "synthetic peptide with N-terminal leucine (Example 1, on nanogel surface)", "experiment": "single-molecule detection, TIRF microscopy; Cy5-labeled NAAB on peptide immobilized on nanogel; counts per field of view", "description": "The NAAB for N-terminal leucine amino acids was non-specifically labeled with Cy5 fluorophore on lysine side chains. […] An additional experiment was performed with no peptide added. The labeled NAAB was briefly incubated with the immobilized peptide, and unbound protein was removed by washing. Bound protein, which may be bound specifically to peptides or non-specifically to the surface, was imaged by total internal reflection fluorescence (TIRF) microscopy. Spots exceeding a detection threshold were deemed to indicate bound protein and were converted to a number of counts per field-of-view."}, "[6]": {"target": "peptide with N-terminal glutamine", "experiment": "biolayer interferometry (Blitz), peptide-coated sensor, NAAB in 1x PBS, 1:1 fit, kd/ka"}, "[7]": {"target": "peptide with N-terminal threonine", "experiment": "biolayer interferometry (Blitz), peptide-coated sensor, NAAB in 1x PBS, 1:1 fit, kd/ka"}, "[8]": {"target": "peptide with N-terminal methionine (biolayer interferometry)", "experiment": "biolayer interferometry (Blitz), peptide-coated sensor, NAAB in 1x PBS, 1:1 fit, kd/ka"}, "[9]": {"target": "peptide with N-terminal glutamate", "experiment": "biolayer interferometry (Blitz), peptide-coated sensor, NAAB in 1x PBS, 1:1 fit, kd/ka"}}}
{"binder": "ArgNAAB (enzyme, Purified on GSTrap; also called Arginine) EKQTIVVDYSAPNVAKEMHVGHLRSTIIGDAAVRTLEFLGHKVIRANHVGDWGTQFGMLIAWLEKQQQENAGEMELADLEGFYRDAKKHYDEDEEFAERARNYVVKLQSGDEYFREMWRKLVDITMTQNQITYDRLNVTLTRDDVMGESLYNPMLPGIVADLKAKGLAVESEGATVVFLDEFKNKEGEPMGVIIQKKDGGYLYTTTDIACAKYRYESLHADRVLYYIDSRQHQHLMQAWAIVRKAGYVPESVPLEHHMFGMMLGKDGKPFKTRAGGTVKLADLLDETLERARRLVAEKNPDMPADELEKLANAVGIGAVKYADLSKNRTTDYIFDWDNMLAFEGNTAPYMQYAYTRVLSVFRKAEINEEQLAAAPVIIREDREAQLAARLLQFEETLTVVAREGTPHVMCAYLYDLAGLFSGFYEHCPILSAENEEVRNSRLKLAQLTAKTLKLGLDTLGIETVERM", "values": [{"measurement": "Kd", "setting": "[1]", "result": 129, "unit": "nM"}]}
{"binder": "AsnNAAB (enzyme, Purified on GSTrap; also called Asparagine) SIEYLREVAHLRPRTNLIGAVARVRHTLAQALHRFFNEQGFFWVSTPLITASDTEGAGEMFRVSTLDLENLPRNDQGKVDFDKDFFGKESFLTVSGQLNGETYACALSKIYTFGPTFRAENSNTSRHLAEFWMLEPEVAFANLNDIAGLAEAMLKYVFKAVLEERADDMKFFAERVDKDAVSRLERFIEADFAQVDYTDAVTILENCGRKFENPVYWGVDLSSEHERYLAEEHFKAPVVVKNYPKDIKAFYMRLNEDGKTVAAMDVLAPGIGEIIGGSQREERLDVLDERMLEMGLNKEDYWWYRDLRRYGTVPHSGFGLGFERLIAYVTGVQNVRDVIPFPRTP", "values": [{"measurement": "Kd", "setting": "[2]", "result": 754, "unit": "nM"}]}
{"binder": "SerNAAB (enzyme, Purified on GSTrap; also called Serine) MLDPNLLRNEPDAVAEKLARRGFKLDVDKLGALEERRKVLQVKTENLQAERNSRSKSIGQAKARGEDIEPLRLEVNKLGEELDAAKAELDALQAEIRDIALTIPNLPADEVPVGKDENDNVEVSRWGTPREFDFEVRDHVTLGEMYSGLDFAAAVKLTGSRFVVMKGQIARMHRALSQFMLDLHTEQHGYSENYVPYLVNQDTLYGTGQLPKFAGDLFHTRPLEEEADTSNYALIPTAEVPLTNLVRGEIIDEDDLPIKMTAHTPCFRSEAGSYGRDTRGLIRMHQFDKVEMVQIVRPEDSMAALEEMTGHAEKVLQLLGLPYRKIILCTGDMGFGACKTYDLEVWIPAQNTYREISSCSNVWDFQARRMQARCRSKSDKKTRLVHTLNGSGLAVGRTLVAVMENYQQADGRIEVPEVLRPYMNGLEYI", "values": [{"measurement": "Kd", "setting": "[3]", "result": 938, "unit": "nM"}]}
{"binder": "IleNAAB (enzyme, Purified on GSTrap; also called Isoleucine) FPMRGDLAKREPGMLARWTDDDLYGIIRAAKKGKKTFILHDGPPYANGSIHIGHSVNKILKDIIIKSKGLSGYDSPYVPGWDCHGLPIELKVEQEYGKPGEKFTAAEFRAKCREYAATQVDGQRKDFIRLGVLGDWSHPYLTMDFKTEANIIRALGKIIGNGHLHKGAKPVHWCVDCRSALAEAEVEYYDKTSPSIVAFQAVDQDALKTKFGVSNVNGPISLVIWTTTPWTLPANRAISIAPDFDYALVQIDGQAVILAKDLVESMQRIGVSDYTILGTVKGAELELLRFTHPFMDFDVPAILGDHVTLDAGTGAVHTAPGHGPDDYVIGQKYGLETANPVGPDGTYLPGTYPTLDGVNVFKANDIVVALLQEKGALLHVEKMQHSYPCCWRHKTPIIFRATPQWFVSMDQKGLRAQSLKEIKGVQWIPDWGQARIESMVANRPDWCISRQRTWGVPMSLFVHKDTEELHPRTLELMEEVAKRVEVDGIQAWWDLDAKEILGDEADQYVKVPDTLDVWFDSGSTHSSVVDVRPEFAGHAADMYLEGSDQHRGWFMSSLMISTAMKGKAPYRQVLTHGFTVDGQGRKMSKSIGNTVSPQDVMNKLGADILRLWVASTDYTGEMAVSDEILKRAADSYRRIRNTARFLLANLNGFDPAKDMVKPEEMVVLDRWAVGCAKAAQEDILKAYEAYDFHEVVQRLMRFCSVEMGSFYLDIIKDRQYTAKADSVARRSCQTALYHIAEALVRWMAPILSFTADEVWGYLPGERE", "values": [{"measurement": "Kd", "setting": "[4]", "result": 3010, "unit": "nM"}]}
{"binder": "eLAP, engineered leucine-specific aminopeptidase (NAAB for N-terminal leucine) (designed binder, Cy5 fluorophore non-specifically on lysine side chains, also called NAAB for leucine) MAISIKTPEDIEKMRVAGRLAAEVLEMIEPYVKPGVSTGELERICWDYIVNEQHATDSLTGHNGIDGHGSISINEVVCHGVPDDAKLLKDGDIVNIDVTVRKDGFHGDTSKMFIVGKPTIMGERLCRITQESLYLALRMVKPGINLREIGAAIQKFVEAEGFSVVREYCGHGIGRGHHEEPQVLHYDSRETNVVLKPGMTFTIEPMVNAGKKEIRTMKDGSTVKTKDRSLSAQYEHTIVVTDNGCEILTLRKDDTIPAIISHDE", "values": [{"measurement": "ratio of specific to non-specific binding", "setting": "[5]", "result": "~2 to 1"}]}
{"binder": "GlnNAAB (enzyme, Purified on GSTrap; also called Glutamine) TNFIRQIIDEDLASGKHTTVHTRFPPEPNGYLHIGHAKSICLNFGIAQDYKGQCNLRFDDTNPVKEDIEYVESIKNDVEWLGFHWSGNVRYSSDYFDQLHAYAIELINKGLAYVDELTPEQIREYRGTLTQPGKNSPYRDRSVEENLALFEKMRTGGFEEGKACLRAKIDMASPFIVMRDPVLYRIKFAEHHQTGNKWCIYPMYDFTHCISDALEGITHSLCTLEFQDNRRLYDWVLDNITIPVHPRQYEFSR", "values": [{"measurement": "Kd", "setting": "[6]", "result": 531, "unit": "nM"}]}
{"binder": "ThreNAAB (enzyme, Purified on GSTrap; also called Threonine) RDHRKIGKQLDLYHMQEEAPGMVFWHNDGWTIFRELEVFVRSKLKEYQYQEVKGPFMMDRVLWEKTGHWDNYKDAMFTTSSENREYCIKPMNCPGHVQIFNQGLKSYRDLPLRMAEFGSCHRNEPSGSLHGLGRVRGFTQDDAHIFCTEEQIRDEVNGCIRLVYDMYSTFGFEKIVVKLSTRPEKRIGSDEMWDRAEADLAVALEENNIPFEYQLGEGAFYGPKIEFTLYDCLDRAAQCGTVQLDFSLPSRLSASYVGEDNERKVPVMIHRAILGSMEVFIGILTEEFAGFFPTWLAPVQVVIMNITDSQSEYVNELTQKLSNAGIRVKADLRNEKIGFKIREHTLRRVPYMLVCGDKEVESGKVAVRTRRGKDLGSMDVNEVIEKLQQEIRSRSLKQLEE", "values": [{"measurement": "Kd", "setting": "[7]", "result": 1010, "unit": "nM"}]}
{"binder": "Met NAAB (as used in biolayer interferometry) (designed binder, Same engineered MetRS fragment as m5, here without stated Cy5 label; also called Methionine) AKKILVTCASPYANGSIHLGHMLEHIQADVWVRYQRMRGHEVNFICADDAHGTPIMLKAQQLGITPEQMIGEMSQEHQTDFAGFNISYDNYHSTHSEENRQLSELIYSRLKENGFIKNRTISQLYDPEKGMFLPDRFVKGTCPKCKSPDQYGDNCEVCGATYSPTELIEPKSVVSGATPVMRDSEHFFFDLPSFSEMLQAWTRSGALQEQVANKMQEWFESGLQQWDISRDAPYFGFEIPNAPGKYFYVWLDAPIGLMGSFKNLCDKRGDSVSFDEYWKKDSTAELYHFIGKGIVYFLSLFWPAMLEGSNFRKPSNLFVHGYVTVNGAKMSKSRGTFIKASTWLNHFDADSLRYYYTAKLSSRIDDIDLNLEDFVQRVNADIVNKVVNLASRNAGFINKRFDGVLASELADPQLYKTFTDAAEVIGEAWESREFGKAVREIMALADLANRYVDEQAPWVVAKQEGRDADLQAICSMGINLFRVLMTYLKPVLPKLTERAEAFLNTELTWDGIQQPLLGHKVNPFKALYNRIDMRQVEALVEASK", "values": [{"measurement": "Kd", "setting": "[8]", "result": 1070, "unit": "nM"}]}
{"binder": "GluNAAB (enzyme, also called Glutamate) IKTRFAPSPTGYLHVGGARTALYSWLFARNHGGEFVLRIEDTDLERSTPEAIEAIMDGMNWLSLEWDEGPYYQTKRFDRYNAVIDQMLEEGTAYKCYCSKERLEALREEQMAKGEKPRYDGRCRHSHEHHADDEPCVVRFANPQEGSVVFDDQIRGPIEFSNQELDDLIIRRTDGSPTYNFCVVVDDWDMEITHVIRGEDHINNTPRQINILKALNAPVPVYAHVSMINGDDGKKLSKRHGAVSVMQYRDDGYLPEALLNYLVRLGWSHGDQEIFTREEMIKYFTLNAVSKSASAFNTDKLLWLNHHYI", "values": [{"measurement": "Kd", "setting": "[9]", "result": 2120, "unit": "nM"}]}
